Reference: publication PMC8632972

Assays:
SCG5 tagged with cYFP [1] = molecular target: SCG5 tagged with cYFP (UniProt P27682); experiment: PLA; conditions: n = 4 independent experiments, n = 8 independent images quantified; parent: est. 100; read off a plot
CPE tagged with cYFP = CPE tagged with cYFP (UniProt P15087); experiment: BiFC quantified by flow cytometry; conditions: n = 5 independent experiments; parent: est. 100; read off a plot
NPY tagged with cYFP = NPY tagged with cYFP (UniProt P07808); experiment: BiFC quantified by flow cytometry; conditions: n = 5 independent experiments; parent: est. 100; read off a plot
SCG5 tagged with cYFP [2] = molecular target: SCG5 tagged with cYFP (UniProt P27682); experiment: BiFC quantified by flow cytometry; conditions: n = 5 independent experiments; parent: est. 100; read off a plot
[3] = molecular target: proinsulin tagged with C-terminal segment of YFP (cYFP) (UniProt P01322); experiment: BiFC quantified by flow cytometry; conditions: n = 5 independent experiments; parent: est. 100; read off a plot
Sequence of UniProt P01322 (P01322 25-110): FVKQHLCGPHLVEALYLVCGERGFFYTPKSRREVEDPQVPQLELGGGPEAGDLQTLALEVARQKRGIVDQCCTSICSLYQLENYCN

SEC24A tagged with Myc = experiment: PLA; conditions: n = 3 independent experiments, n = 8 independent images quantified; parent: est. 4.5; read off a plot

Sequence of UniProt P27682 (P27682 25-210): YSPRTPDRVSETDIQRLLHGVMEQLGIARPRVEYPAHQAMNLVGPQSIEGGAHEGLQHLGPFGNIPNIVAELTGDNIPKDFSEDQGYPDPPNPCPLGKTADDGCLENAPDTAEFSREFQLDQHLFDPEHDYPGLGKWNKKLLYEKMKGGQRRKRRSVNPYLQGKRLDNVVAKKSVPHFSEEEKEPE
Sequence of UniProt P15087 (P15087 28-476): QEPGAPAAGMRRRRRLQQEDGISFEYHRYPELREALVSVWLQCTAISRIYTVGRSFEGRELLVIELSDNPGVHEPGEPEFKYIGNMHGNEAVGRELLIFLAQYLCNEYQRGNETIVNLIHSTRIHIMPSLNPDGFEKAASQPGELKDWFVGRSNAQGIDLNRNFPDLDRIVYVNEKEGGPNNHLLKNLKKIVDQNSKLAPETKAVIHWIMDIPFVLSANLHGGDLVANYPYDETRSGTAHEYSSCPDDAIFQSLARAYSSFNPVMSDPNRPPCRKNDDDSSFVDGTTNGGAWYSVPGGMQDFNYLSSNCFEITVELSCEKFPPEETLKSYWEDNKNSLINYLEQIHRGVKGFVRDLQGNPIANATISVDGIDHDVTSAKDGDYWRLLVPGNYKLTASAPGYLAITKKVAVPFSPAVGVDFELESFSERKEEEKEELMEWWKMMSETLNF

Substance | response (puncta (>1µm2) per cell) (SCG5 tagged with cYFP [1]) | percent of parent (CPE tagged with cYFP) [%] | percent of parent (NPY tagged with cYFP) [%] | percent of parent (SCG5 tagged with cYFP [2]) [%] | percent of parent [3] [%] | response (puncta (>1µm2) per cell) (SEC24A tagged with Myc)
HA-tagged WFS1 E809K | 56 |  |  |  |  | 
WFS1 tagged with N-terminal segment of YFP (nYFP) E809K |  | 46 | 41 | 71 | 70 | 
HA-tagged WFS1 E169K |  |  |  |  |  | 0.13
WFS1 tagged with N-terminal segment of YFP (nYFP) P724L |  | 71 | 49 | 54 | 61 | 
HA-tagged WFS1 G695V | 35 |  |  |  |  | 
WFS1 tagged with N-terminal segment of YFP (nYFP) G695V |  | 41 | 33 | 56 | 42 | 
WFS1 tagged with N-terminal segment of YFP (nYFP) E830A |  | 2 | 3 | 8 | 23 | 
HA-tagged WFS1 P724L | 55 |  |  |  |  | 
HA-tagged WFS1 E830A | 7 |  |  |  |  | 
HA-tagged WFS1 E158K |  |  |  |  |  | 0.13
